Test results reported in PMC10495264 (Nature Cell Biology, 2023).

Tests used:
[1] = biological target: TORC1 containing the N-terminally GFP-tagged Tor1 subunit (Saccharomyces cerevisiae) (UniProt P35169); assay: MST; GFP–Tor1-containing TORC1 (7.5 nM) as fluorescent target, 16 twofold dilutions of Acc1 (highest 80 nM) or Fas1 (highest 20 nM); 50 mM HEPES NaOH pH 7.5, 150 mM NaCl; 30 °C; Monolith NT.115
yeast cells = assay: Drop spot growth assays on rapamycin and/or cerulenin plates; type: cell-based, Saccharomyces cerevisiae; conditions: low / sublethal doses combined
Method: Yeast cells (Saccharomyces cerevisiae) were cultured in liquid SC medium (1.7 g l^−1 yeast nitrogen base (cat. no. 1545, CONDA), 5 g l^−1 ammonium sulfate (cat. no. 4808211, MP Biomedicals), 20 g l^−1 glucose (cat. no. 1422, AppliChem), 2 g l^−1 amino acid dropout –His (D9520, US Biological) and 35 mg l^−1 histidine (A1341, AppliChem) at 30 °C to the exponential growth phase, unless otherwise stated in the figure legends. All yeast strains used in this study are listed in Supplementary Table 1.

TORC1 [2] = biological target: T1, TORC1 (Saccharomyces cerevisiae, UniProt P35169); assay: MST binding affinity assays with fluorescent TORC1 (GFP–Tor1); conditions: for Kd: purified yeast proteins, GFP–Tor1-containing TORC1 7.5 nM, 30 °C, mean ± s.d., n = 3, read-out: Kd (binding to TORC1, MST); for Fraction bound transformed (MST, TORC1 target): Fig. 6d,e
T1 construct: made in house; host or cells: S. cerevisiae strain NIC005 ([RL170-2c] LEU2:GFP-TOR1)
Method: The MST experiments were performed using a Monolith NT.115 (Nanotemper Technologies). Purification of TORC1 containing the N-terminally GFP-tagged Tor1 subunit was carried out as described previously. For the protein–protein interaction experiments, GFP–Tor1-containing TORC1 (7.5 nM) was mixed with a series of twofold dilutions (a total of 16 samples) of Acc1 (highest concentration, 80 nM) or Fas1 (highest concentration, 20 nM) purified from yeast through TAP-tag immuno-enrichment with rabbit IgG-coated magnetic beads and subsequent TEV cleavage in elution buffer (50 mM HEPES NaOH pH 7.5 and 150 mM NaCl) for 1 h at 18 °C. The samples were loaded into Monolith NT.115 capillaries and MST measurements were performed using 80% laser power and medium MST power setting at 30 °C. For the small molecule–protein interaction experiments, GFP–Tor1-containing TORC1 (7.5 nM) was mixed with a series of twofold dilutions (a total of 16 samples) of Mal-CoA (M4263, Sigma-Aldrich; highest concentration, 5 mM) dissolved in 50 mM HEPES pH 7.5. The samples were loaded into Monolith NT.115 capillaries and MST measurements were performed using 80% laser power and medium MST power setting at 30 °C. The experiments were performed in triplicate and data were fitted using the Kd model of the MO.Affinity Analysis software (Nanotemper Technologies). The signal-to-noise ratio represents the response amplitude divided by the noise of the measurement. The Kd value was obtained by plotting the bound fraction against the log-transformed ligand concentration.

TORC1 [3] = biological target: T1, TORC1; assay: as above
[4] = test system: intracellular TAG and palmitate (C16:0) levels; assay: TAG and palmitate (C16:0) measurements by LC-HRMS; type: cell-based, human; conditions: ED Fig. 5t; compared with BSA
Method: The intracellular levels of TAGs and palmitate (C16:0) were determined using liquid chromatography-high resolution mass spectrometry-based analysis. Briefly, cells were seeded in 10-cm dishes and treated as described in the ‘Mammalian cell culture treatments’ section. The cells were scraped in medium and collected by centrifugation (400g, 3 min). The pellets were then washed three times with 1 ml ice-cold PBS, snap frozen in liquid nitrogen and kept at −80 °C until further processing.
The samples were vortexed for 10 s immediately after the addition of the extraction buffer and then incubated for 30 min on an orbital shaker at 4 °C. The proteins were pelleted by centrifugation (10 min, 21,000g, 4 °C) and the supernatants were transferred to a clean 2-ml tube. […]
The lipid pellets were resuspended in 200 µl ultra-performance liquid chromatography (UPLC)-grade acetonitrile:isopropanol 70:30 (vol/vol). […] In both cases, the analysed mass range was in the range of m/z 150–1,500. […]
All samples were analysed in a randomized run order. […] For measurements of intracellular TAG abundance (Extended Data Fig. 5r), the sum of all values corresponding to the peak areas for the different individual TAGs was calculated for each sample.

[5] = titrated protein 4.88281e-9 M, Fig. 6d,e
[6] = titrated protein 3.90625e-8 M, Fig. 6d,e
[7] = titrated protein 1.5625e-7 M, Fig. 6d,e

T1 sequence (P35169 whole entry): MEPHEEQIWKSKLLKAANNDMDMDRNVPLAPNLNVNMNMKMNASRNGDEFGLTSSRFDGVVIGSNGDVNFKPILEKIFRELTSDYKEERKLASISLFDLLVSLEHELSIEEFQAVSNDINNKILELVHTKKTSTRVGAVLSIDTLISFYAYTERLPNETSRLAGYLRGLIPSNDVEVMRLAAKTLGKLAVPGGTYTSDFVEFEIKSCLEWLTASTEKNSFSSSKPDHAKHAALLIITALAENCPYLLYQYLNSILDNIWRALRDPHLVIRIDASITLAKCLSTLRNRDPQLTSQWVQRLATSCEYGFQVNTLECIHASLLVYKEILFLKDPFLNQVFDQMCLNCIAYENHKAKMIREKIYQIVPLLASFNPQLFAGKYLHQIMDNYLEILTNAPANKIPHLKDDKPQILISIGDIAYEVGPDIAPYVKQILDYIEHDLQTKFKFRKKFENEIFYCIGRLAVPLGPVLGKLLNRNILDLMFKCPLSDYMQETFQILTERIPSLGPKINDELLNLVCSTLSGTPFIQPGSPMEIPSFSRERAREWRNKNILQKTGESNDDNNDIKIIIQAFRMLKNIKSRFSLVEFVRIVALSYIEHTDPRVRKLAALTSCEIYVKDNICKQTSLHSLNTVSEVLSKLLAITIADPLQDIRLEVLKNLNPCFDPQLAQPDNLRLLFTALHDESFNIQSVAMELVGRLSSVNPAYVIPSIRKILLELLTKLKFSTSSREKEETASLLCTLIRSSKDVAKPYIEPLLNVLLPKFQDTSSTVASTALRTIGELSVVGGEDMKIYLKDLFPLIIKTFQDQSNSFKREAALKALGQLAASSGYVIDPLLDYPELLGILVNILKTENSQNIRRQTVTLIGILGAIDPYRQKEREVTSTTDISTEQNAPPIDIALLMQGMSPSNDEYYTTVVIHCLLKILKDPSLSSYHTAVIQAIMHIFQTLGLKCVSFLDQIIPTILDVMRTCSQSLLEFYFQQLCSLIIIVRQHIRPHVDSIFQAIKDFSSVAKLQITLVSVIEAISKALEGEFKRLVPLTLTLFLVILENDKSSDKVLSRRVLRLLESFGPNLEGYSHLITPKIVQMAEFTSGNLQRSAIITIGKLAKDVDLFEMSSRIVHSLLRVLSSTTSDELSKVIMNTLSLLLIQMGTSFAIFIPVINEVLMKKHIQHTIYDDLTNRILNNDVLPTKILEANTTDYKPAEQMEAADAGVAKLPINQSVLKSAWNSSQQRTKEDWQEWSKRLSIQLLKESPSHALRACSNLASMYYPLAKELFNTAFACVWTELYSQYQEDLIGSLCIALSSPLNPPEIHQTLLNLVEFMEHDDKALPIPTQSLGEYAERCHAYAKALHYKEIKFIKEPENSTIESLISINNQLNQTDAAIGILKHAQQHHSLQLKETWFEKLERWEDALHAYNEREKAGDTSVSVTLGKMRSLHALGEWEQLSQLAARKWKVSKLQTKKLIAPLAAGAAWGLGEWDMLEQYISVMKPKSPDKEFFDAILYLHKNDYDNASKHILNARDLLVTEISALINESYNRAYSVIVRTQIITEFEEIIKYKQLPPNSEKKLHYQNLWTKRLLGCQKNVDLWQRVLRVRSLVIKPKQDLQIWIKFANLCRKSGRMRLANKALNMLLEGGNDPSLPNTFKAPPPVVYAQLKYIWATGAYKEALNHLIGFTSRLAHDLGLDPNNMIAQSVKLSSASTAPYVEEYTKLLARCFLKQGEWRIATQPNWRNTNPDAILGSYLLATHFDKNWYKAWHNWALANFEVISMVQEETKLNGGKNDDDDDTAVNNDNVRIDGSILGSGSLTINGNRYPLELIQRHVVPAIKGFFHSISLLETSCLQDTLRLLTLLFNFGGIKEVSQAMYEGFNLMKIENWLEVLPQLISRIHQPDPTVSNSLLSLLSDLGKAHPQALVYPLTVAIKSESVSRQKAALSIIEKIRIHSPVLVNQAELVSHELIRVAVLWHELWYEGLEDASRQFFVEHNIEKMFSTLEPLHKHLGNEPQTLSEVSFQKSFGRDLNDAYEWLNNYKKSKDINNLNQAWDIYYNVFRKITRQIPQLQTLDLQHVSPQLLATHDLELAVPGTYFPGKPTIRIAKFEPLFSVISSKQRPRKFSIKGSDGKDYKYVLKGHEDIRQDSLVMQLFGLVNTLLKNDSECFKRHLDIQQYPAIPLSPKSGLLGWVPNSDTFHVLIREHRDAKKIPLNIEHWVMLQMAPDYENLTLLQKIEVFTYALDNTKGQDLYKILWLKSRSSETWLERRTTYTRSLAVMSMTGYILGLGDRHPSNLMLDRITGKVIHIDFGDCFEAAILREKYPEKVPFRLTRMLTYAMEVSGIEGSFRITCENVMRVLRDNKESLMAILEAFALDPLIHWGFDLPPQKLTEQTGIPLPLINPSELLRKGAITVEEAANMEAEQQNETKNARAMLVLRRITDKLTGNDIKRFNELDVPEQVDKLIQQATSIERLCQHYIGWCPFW
T1 sequence (Q08921 whole entry partner): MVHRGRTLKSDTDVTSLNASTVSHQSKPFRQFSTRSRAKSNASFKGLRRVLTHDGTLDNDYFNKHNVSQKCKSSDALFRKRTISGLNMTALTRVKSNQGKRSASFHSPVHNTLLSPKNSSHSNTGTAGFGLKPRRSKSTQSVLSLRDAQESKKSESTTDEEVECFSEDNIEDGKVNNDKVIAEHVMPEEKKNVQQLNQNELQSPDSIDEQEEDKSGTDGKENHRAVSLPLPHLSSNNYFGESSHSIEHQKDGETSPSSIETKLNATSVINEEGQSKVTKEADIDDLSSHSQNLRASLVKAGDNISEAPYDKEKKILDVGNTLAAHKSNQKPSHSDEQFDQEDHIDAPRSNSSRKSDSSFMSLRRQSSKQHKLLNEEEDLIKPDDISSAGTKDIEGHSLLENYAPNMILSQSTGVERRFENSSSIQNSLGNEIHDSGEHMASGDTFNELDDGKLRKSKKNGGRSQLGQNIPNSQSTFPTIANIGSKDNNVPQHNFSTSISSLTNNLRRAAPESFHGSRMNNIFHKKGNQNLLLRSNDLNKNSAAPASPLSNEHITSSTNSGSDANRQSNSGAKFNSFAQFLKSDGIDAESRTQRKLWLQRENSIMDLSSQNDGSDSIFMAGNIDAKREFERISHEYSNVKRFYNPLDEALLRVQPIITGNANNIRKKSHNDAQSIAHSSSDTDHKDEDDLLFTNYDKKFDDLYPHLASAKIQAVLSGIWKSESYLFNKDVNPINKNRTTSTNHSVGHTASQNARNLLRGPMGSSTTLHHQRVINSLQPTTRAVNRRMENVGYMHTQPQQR
T1 sequence (P38873 whole entry partner): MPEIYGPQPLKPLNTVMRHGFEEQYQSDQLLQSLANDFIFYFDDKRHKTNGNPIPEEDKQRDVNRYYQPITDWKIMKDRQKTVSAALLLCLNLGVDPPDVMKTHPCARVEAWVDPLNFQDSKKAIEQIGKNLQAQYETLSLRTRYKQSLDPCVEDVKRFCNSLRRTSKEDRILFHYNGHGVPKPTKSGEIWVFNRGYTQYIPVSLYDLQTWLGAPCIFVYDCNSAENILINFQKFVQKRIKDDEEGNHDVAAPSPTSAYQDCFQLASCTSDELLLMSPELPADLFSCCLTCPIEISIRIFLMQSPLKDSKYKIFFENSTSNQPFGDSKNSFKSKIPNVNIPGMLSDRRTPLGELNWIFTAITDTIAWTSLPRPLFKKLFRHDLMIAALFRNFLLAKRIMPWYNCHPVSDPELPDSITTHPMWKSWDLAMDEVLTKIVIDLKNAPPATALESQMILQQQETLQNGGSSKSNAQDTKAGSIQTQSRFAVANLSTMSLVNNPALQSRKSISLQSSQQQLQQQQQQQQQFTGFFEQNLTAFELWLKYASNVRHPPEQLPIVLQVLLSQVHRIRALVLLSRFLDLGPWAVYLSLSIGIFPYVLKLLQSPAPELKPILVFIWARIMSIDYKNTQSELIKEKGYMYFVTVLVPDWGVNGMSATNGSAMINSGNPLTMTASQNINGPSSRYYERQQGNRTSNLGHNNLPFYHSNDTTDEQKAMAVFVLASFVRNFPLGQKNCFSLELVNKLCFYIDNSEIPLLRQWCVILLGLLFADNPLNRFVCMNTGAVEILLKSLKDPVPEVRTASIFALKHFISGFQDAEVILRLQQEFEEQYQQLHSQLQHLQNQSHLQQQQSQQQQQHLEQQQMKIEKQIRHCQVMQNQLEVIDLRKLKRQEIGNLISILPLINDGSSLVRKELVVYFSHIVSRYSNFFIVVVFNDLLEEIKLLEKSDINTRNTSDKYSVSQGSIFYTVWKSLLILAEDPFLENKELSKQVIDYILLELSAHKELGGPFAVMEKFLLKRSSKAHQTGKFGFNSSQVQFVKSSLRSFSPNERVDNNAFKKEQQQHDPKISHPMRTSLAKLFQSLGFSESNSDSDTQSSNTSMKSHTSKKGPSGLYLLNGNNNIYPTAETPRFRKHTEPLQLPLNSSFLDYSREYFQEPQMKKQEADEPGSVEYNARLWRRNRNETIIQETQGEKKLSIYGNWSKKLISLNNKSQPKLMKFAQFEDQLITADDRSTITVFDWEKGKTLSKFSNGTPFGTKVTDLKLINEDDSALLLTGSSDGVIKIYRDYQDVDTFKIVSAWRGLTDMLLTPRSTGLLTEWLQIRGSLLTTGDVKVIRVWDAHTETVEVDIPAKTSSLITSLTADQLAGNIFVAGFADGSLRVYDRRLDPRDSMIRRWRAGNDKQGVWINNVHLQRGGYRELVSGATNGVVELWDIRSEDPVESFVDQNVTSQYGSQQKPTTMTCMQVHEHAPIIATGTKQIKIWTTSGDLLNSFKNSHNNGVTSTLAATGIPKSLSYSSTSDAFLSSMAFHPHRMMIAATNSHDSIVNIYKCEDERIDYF
T1 sequence (P41318 whole entry partner): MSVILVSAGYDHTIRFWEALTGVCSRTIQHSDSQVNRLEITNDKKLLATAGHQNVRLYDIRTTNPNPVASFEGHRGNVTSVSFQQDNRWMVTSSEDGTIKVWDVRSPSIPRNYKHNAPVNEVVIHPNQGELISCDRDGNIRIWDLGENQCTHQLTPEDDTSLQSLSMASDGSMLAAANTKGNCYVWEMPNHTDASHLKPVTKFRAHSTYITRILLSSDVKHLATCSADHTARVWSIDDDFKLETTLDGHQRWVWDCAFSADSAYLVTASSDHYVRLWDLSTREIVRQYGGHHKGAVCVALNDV

Molecule | Kd [1] [nM] | Kd (TORC1 [2]) [nM] | Fraction bound transformed (MST, TORC1 target) (TORC1 [2]; titrated protein 2.44141e-9 M) | Fraction bound transformed (MST, TORC1 target) (TORC1 [2]; titrated protein 9.76563e-9 M) | Fraction bound transformed (MST, TORC1 target) (TORC1 [2]; titrated protein 1.95313e-8 M) | Fraction bound transformed (MST, TORC1 target) (TORC1 [2]; titrated protein 7.8125e-8 M) | Fraction bound transformed (MST, TORC1 target) (TORC1 [2]; titrated protein 3.125e-7 M) | Fraction bound transformed (MST, TORC1 target) (TORC1 [2]; titrated protein 6.25e-7 M) | Fraction bound transformed (MST, TORC1 target) (TORC1 [2]; titrated protein 1.25e-6 M) | Fraction bound transformed (MST, TORC1 target) (TORC1 [2]; titrated protein 2.5e-6 M) | Fraction bound transformed (MST, TORC1 target) (TORC1 [2]; titrated protein 5e-6 M) | Fraction bound transformed (MST, TORC1 target) (TORC1 [2]; titrated protein 1e-5 M) | Fraction bound transformed (MST, TORC1 target) (TORC1 [2]; titrated protein 2e-5 M) | Fraction bound transformed (MST, TORC1 target) (TORC1 [3]; [5]) | Fraction bound transformed (MST, TORC1 target) (TORC1 [3]; [6]) | Fraction bound transformed (MST, TORC1 target) (TORC1 [3]; [7]) | also measured
Fas1 purified from yeast (from UniProt P07149 1-2051) (enzyme) | 23.7 | – | – | – | – | – | – | – | – | – | – | – | – | – | – | – | –
CO[C@H]1C[C@@H]2CC[C@@H](C)[C@@](O)(O2)C(=O)C(=O)N2CCCC[C@H]2C(=O)O[C@H]([C@H](C)C[C@@H]2CC[C@@H](O)[C@H](OC)C2)CC(=O)[C@H](C)/C=C(\C)[C@@H](O)[C@@H](OC)C(=O)[C@H](C)C[C@H](C)/C=C/C=C/C=C/1C [rapamycin] | – | – | – | – | – | – | – | – | – | – | – | – | – | – | – | – | combined effect of rapamycin and cerulenin on yeast growth (yeast cells): additive effect
Acc1: yeast acetyl-CoA carboxylase purified from yeast through TAP-tag immuno-enrichment | – | 49.1 ± 28.3 | 0.1107 | -0.03249 | 0.3896 | 0.8094 | 0.5572 | 0.7617 | 0.8055 | 0.9274 | 1.054 | 1.011 | 0.9376 | 0.03811 | 0.4481 | 0.735 | Fraction bound transformed (MST, TORC1 target) (TORC1 [2]; titrated protein 4e-5 M): 1.262; Fraction bound transformed (MST, TORC1 target) (TORC1 [2]; titrated protein 8e-5 M): 1.2067
BSA-C16:0 | – | – | – | – | – | – | – | – | – | – | – | – | – | – | – | – | C16:0 (peak area), Mean [4]: 531779
Fas1: yeast FA synthase subunit purified from yeast through TAP-tag immuno-enrichment | – | 23.7 ± 15.4 | 0.1633 | 0.4832 | 0.1917 | 0.6873 | 0.978 | 1.128 | 1.25 | 1.151 | 0.8443 | 0.9239 | 0.8697 | 0.2698 | 0.7564 | 0.5063 | Fraction bound transformed (MST, TORC1 target) (TORC1 [3]; titrated protein 1.2207E-09 M, Fig. 6e): -0.03697; Fraction bound transformed (MST, TORC1 target) (TORC1 [3]; titrated protein 6.1035E-10 M, Fig. 6e): -0.1692
Acc1 purified from yeast (from UniProt Q00955 1-2233) (enzyme) | 49.1 | – | – | – | – | – | – | – | – | – | – | – | – | – | – | – | –
